Assay results from US20040053823.

Experiments:
[1] = tested on: phage clone C6 (SEQ ID NO:22)
[2] = tested on: synthesized polypeptide B37 (SEQ ID NO:13)
[3] = tested on: synthesized polypeptide C9 (SEQ ID NO:10)
[4] = tested on: variants of three peptides synthesized to contain a Pro at P3
[5] = tested on: synthesized polypeptide A3 (SEQ ID NO:24)
[6] = tested on: synthesized polypeptide B74 (SEQ ID NO:2)
[7] = tested on: phage clone A10 (SEQ ID NO:26)
[8] = tested on: phage clone B79 (SEQ ID NO:5)
[9] = tested on: phage clone A43 (SEQ ID NO:8)
[10] = tested on: synthesized polypeptide B49 (SEQ ID NO:1)
[11] = tested on: phage clone C9 (SEQ ID NO:10)
[12] = tested on: phage clone A34 (SEQ ID NO:11)
[13] = tested on: phage clone B49 (SEQ ID NO:1)
[14] = tested on: phage clone B74 (SEQ ID NO:2)
[15] = tested on: phage clone A4 (SEQ ID NO:21)
[16] = tested on: phage clone C5 (SEQ ID NO:18)
[17] = tested on: phage clone A54 (SEQ ID NO:4)
[18] = tested on: phage clone A31 (SEQ ID NO:14)
[19] = tested on: synthesized polypeptide A13 (SEQ ID NO:12)
[20] = tested on: phage clone A3 (SEQ ID NO:24)
[21] = tested on: phage clone B37 (SEQ ID NO:13)
[22] = tested on: phage clone B66 (SEQ ID NO:6)
[23] = tested on: phage clone A9 (SEQ ID NO:19)
[24] = tested on: phage clone C3 (SEQ ID NO:16)
[25] = tested on: phage clone A13 (SEQ ID NO:12)
[26] = tested on: phage clone A54 (SEQ ID NO:3)
[27] = tested on: phage clone A45 (SEQ ID NO:25)
[28] = tested on: phage clone A21 (SEQ ID NO:17)
[29] = tested on: phage clone A6 (SEQ ID NO:9), MMP-2 substrate
[30] = tested on: phage clone A21 (SEQ ID NO:20)
[31] = tested on: phage clone B46 (SEQ ID NO:7)
[32] = tested on: synthesized polypeptide A34 (SEQ ID NO:11)
[33] = tested on: phage clone A29 (SEQ ID NO:27)
[34] = tested on: phage clone B53 (SEQ ID NO:15)
[35] = tested on: phage clone D3 (SEQ ID NO:23)
[36] = tested on: synthesized polypeptide A21 (SEQ ID NO:17)
[37] = tested on: synthesized polypeptide A6 (contains SEQ ID NO:30)
[38] = tested on: phage clone D17 (SEQ ID NO:35)
[39] = tested on: phage clone D5 (SEQ ID NO:34)
[40] = tested on: phage clone D24 (SEQ ID NO:33)
[41] = tested on: the peptides (MMP-9 substrate peptides of Example III)
[42] = tested on: mutant peptide A11m2 (AC-SGKIPRTATA-NH2, SEQ ID NO:126)
[43] = tested on: phage clone C15 (SEQ ID NO:28)
[44] = tested on: synthesized polypeptide A11 (contains SEQ ID NO:29)
[45] = tested on: phage clone D36 (SEQ ID NO:32)
[46] = tested on: synthesized polypeptide C15 (contains SEQ ID NO:28)
[47] = tested on: phage clone A6 (SEQ ID NO:30), MMP-9 substrate
[48] = tested on: phage clone D12 (SEQ ID NO:31)
[49] = tested on: phage clone A11 (SEQ ID NO:29)

Chain of MMP-9 (recombinant catalytic domain, APMA-activated) (chain, as listed by the source): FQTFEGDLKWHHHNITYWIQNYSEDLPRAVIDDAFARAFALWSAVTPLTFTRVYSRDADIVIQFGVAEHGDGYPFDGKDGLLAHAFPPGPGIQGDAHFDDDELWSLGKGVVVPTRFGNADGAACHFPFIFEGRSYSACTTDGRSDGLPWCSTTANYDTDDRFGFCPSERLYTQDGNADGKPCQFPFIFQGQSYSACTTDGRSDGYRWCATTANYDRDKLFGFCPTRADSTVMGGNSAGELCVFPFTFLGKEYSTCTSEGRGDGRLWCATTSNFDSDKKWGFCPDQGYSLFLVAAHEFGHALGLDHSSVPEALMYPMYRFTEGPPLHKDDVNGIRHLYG
Chain of MMP-2 (recombinant catalytic domain, APMA-activated) (chain, as listed by the source): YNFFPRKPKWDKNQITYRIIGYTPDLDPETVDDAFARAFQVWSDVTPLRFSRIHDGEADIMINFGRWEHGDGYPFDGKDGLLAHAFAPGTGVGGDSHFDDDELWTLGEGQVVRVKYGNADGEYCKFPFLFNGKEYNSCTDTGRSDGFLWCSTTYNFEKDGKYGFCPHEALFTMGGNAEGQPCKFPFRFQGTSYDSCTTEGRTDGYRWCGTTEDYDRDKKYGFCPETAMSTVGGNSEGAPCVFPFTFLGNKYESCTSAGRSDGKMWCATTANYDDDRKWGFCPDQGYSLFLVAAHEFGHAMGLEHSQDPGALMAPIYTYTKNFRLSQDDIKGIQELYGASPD

With “MMP-2 (recombinant catalytic domain, APMA-activated)” as the substance, how does the % hydrolysis (substrate phage ELISA) [1] read?
The % hydrolysis (substrate phage ELISA) was 19%.

What about the selectivity ratio: kcat/Km for MMP-2 divided by kcat/Km for MMP-7 [2] of the same substance?
The selectivity ratio: kcat/Km for MMP-2 divided by kcat/Km for MMP-7 was 17.

What about the selectivity ratio: kcat/Km for MMP-2 divided by kcat/Km for MMP-9 [2] of the same substance?
The selectivity ratio: kcat/Km for MMP-2 divided by kcat/Km for MMP-9 was 71.

What about the selectivity ratio: kcat/Km for MMP-2 divided by kcat/Km for MMP-13 [2] of the same substance?
Its selectivity ratio: kcat/Km for MMP-2 divided by kcat/Km for MMP-13 is 58.

What about the selectivity ratio: kcat/Km for MMP-2 divided by kcat/Km for MMP-7 [3] of the same substance?
The selectivity ratio: kcat/Km for MMP-2 divided by kcat/Km for MMP-7 was 35.

And the selectivity ratio: kcat/Km for MMP-2 divided by kcat/Km for MMP-9 [3]?
The selectivity ratio: kcat/Km for MMP-2 divided by kcat/Km for MMP-9 was 198.

And the selectivity ratio: kcat/Km for MMP-2 divided by kcat/Km for MMP-13 [3]?
The selectivity ratio: kcat/Km for MMP-2 divided by kcat/Km for MMP-13 was 52.

What about the “peptide hydrolysis (kcat/Km), compared with MMP-9” value [4] of the same substance?
The value was “the proline-containing peptides remained better substrates for MMP-2 (data not shown)”.

And the selectivity ratio: kcat/Km for MMP-2 divided by kcat/Km for MMP-7 [5]?
The selectivity ratio: kcat/Km for MMP-2 divided by kcat/Km for MMP-7 was 21.

What about the selectivity ratio: kcat/Km for MMP-2 divided by kcat/Km for MMP-9 [5] of the same substance?
The selectivity ratio: kcat/Km for MMP-2 divided by kcat/Km for MMP-9 was 2.

What about the selectivity ratio: kcat/Km for MMP-2 divided by kcat/Km for MMP-13 [5] of the same substance?
Its selectivity ratio: kcat/Km for MMP-2 divided by kcat/Km for MMP-13 is 14.

What about the selectivity ratio: kcat/Km for MMP-2 divided by kcat/Km for MMP-7 [6] of the same substance?
Its selectivity ratio: kcat/Km for MMP-2 divided by kcat/Km for MMP-7 is 354.

What about the selectivity ratio: kcat/Km for MMP-2 divided by kcat/Km for MMP-9 [6] of the same substance?
The selectivity ratio: kcat/Km for MMP-2 divided by kcat/Km for MMP-9 was 108.

And the selectivity ratio: kcat/Km for MMP-2 divided by kcat/Km for MMP-13 [6]?
The selectivity ratio: kcat/Km for MMP-2 divided by kcat/Km for MMP-13 was 140.

What about the % hydrolysis (substrate phage ELISA) [7] of the same substance?
The % hydrolysis (substrate phage ELISA) was 80%.

And the % hydrolysis (substrate phage ELISA) [8]?
Its % hydrolysis (substrate phage ELISA) is 64%.

And the % hydrolysis (substrate phage ELISA) [9]?
The % hydrolysis (substrate phage ELISA) was 38%.

And the selectivity ratio: kcat/Km for MMP-2 divided by kcat/Km for MMP-7 [10]?
The selectivity ratio: kcat/Km for MMP-2 divided by kcat/Km for MMP-7 was 6.

And the selectivity ratio: kcat/Km for MMP-2 divided by kcat/Km for MMP-9 [10]?
Its selectivity ratio: kcat/Km for MMP-2 divided by kcat/Km for MMP-9 is 14.

And the selectivity ratio: kcat/Km for MMP-2 divided by kcat/Km for MMP-13 [10]?
Its selectivity ratio: kcat/Km for MMP-2 divided by kcat/Km for MMP-13 is 13.

And the % hydrolysis (substrate phage ELISA) [11]?
Its % hydrolysis (substrate phage ELISA) is 100%.

And the % hydrolysis (substrate phage ELISA) [12]?
Its % hydrolysis (substrate phage ELISA) is 100%.

What about the % hydrolysis (substrate phage ELISA) [13] of the same substance?
Its % hydrolysis (substrate phage ELISA) is 100%.

What about the % hydrolysis (substrate phage ELISA) [14] of the same substance?
Its % hydrolysis (substrate phage ELISA) is 81%.

And the % hydrolysis (substrate phage ELISA) [15]?
Its % hydrolysis (substrate phage ELISA) is 30%.

And the % hydrolysis (substrate phage ELISA) [16]?
Its % hydrolysis (substrate phage ELISA) is 60%.

What about the % hydrolysis (substrate phage ELISA) [17] of the same substance?
The % hydrolysis (substrate phage ELISA) was 72%.

What about the % hydrolysis (substrate phage ELISA) [18] of the same substance?
Its % hydrolysis (substrate phage ELISA) is 100%.

And the selectivity ratio: kcat/Km for MMP-2 divided by kcat/Km for MMP-7 [19]?
Its selectivity ratio: kcat/Km for MMP-2 divided by kcat/Km for MMP-7 is 13.

And the selectivity ratio: kcat/Km for MMP-2 divided by kcat/Km for MMP-9 [19]?
The selectivity ratio: kcat/Km for MMP-2 divided by kcat/Km for MMP-9 was 15.

And the selectivity ratio: kcat/Km for MMP-2 divided by kcat/Km for MMP-13 [19]?
Its selectivity ratio: kcat/Km for MMP-2 divided by kcat/Km for MMP-13 is 28.

What about the % hydrolysis (substrate phage ELISA) [20] of the same substance?
The % hydrolysis (substrate phage ELISA) was 100%.

And the % hydrolysis (substrate phage ELISA) [21]?
The % hydrolysis (substrate phage ELISA) was 97%.

What about the % hydrolysis (substrate phage ELISA) [22] of the same substance?
Its % hydrolysis (substrate phage ELISA) is 51%.

And the % hydrolysis (substrate phage ELISA) [23]?
Its % hydrolysis (substrate phage ELISA) is 50%.

And the % hydrolysis (substrate phage ELISA) [24]?
Its % hydrolysis (substrate phage ELISA) is 28%.

And the % hydrolysis (substrate phage ELISA) [25]?
Its % hydrolysis (substrate phage ELISA) is 100%.

What about the % hydrolysis (substrate phage ELISA) [26] of the same substance?
Its % hydrolysis (substrate phage ELISA) is 98%.

And the % hydrolysis (substrate phage ELISA) [27]?
Its % hydrolysis (substrate phage ELISA) is 100%.

What about the % hydrolysis (substrate phage ELISA) [28] of the same substance?
The % hydrolysis (substrate phage ELISA) was 30%.

What about the % hydrolysis (substrate phage ELISA) [29] of the same substance?
The % hydrolysis (substrate phage ELISA) was 30%.

And the % hydrolysis (substrate phage ELISA) [30]?
The % hydrolysis (substrate phage ELISA) was 30%.

And the % hydrolysis (substrate phage ELISA) [31]?
The % hydrolysis (substrate phage ELISA) was 48%.

And the selectivity ratio: kcat/Km for MMP-2 divided by kcat/Km for MMP-7 [32]?
Its selectivity ratio: kcat/Km for MMP-2 divided by kcat/Km for MMP-7 is 84.

And the selectivity ratio: kcat/Km for MMP-2 divided by kcat/Km for MMP-9 [32]?
The selectivity ratio: kcat/Km for MMP-2 divided by kcat/Km for MMP-9 was 40.

What about the selectivity ratio: kcat/Km for MMP-2 divided by kcat/Km for MMP-13 [32] of the same substance?
Its selectivity ratio: kcat/Km for MMP-2 divided by kcat/Km for MMP-13 is 24.

And the % hydrolysis (substrate phage ELISA) [33]?
Its % hydrolysis (substrate phage ELISA) is 100%.

What about the % hydrolysis (substrate phage ELISA) [34] of the same substance?
Its % hydrolysis (substrate phage ELISA) is 73%.

What about the % hydrolysis (substrate phage ELISA) [35] of the same substance?
Its % hydrolysis (substrate phage ELISA) is 13%.

And the selectivity ratio: kcat/Km for MMP-2 divided by kcat/Km for MMP-9 [36]?
The selectivity ratio: kcat/Km for MMP-2 divided by kcat/Km for MMP-9 was 8.

How did the “fold increase of the kcat/Km ratio on inclusion of Pro at P3” value [4] turn out when “MMP-9 (recombinant catalytic domain, APMA-activated)” was run?
Its value is “increased the kcat/Km ratio for MMP-9 between three and eleven-fold”.

What about the selectivity ratio: kcat/Km for MMP-9 divided by kcat/Km for MMP-7 [37] of the same substance?
The selectivity ratio: kcat/Km for MMP-9 divided by kcat/Km for MMP-7 was 47.

What about the selectivity ratio: kcat/Km for MMP-9 divided by kcat/Km for MMP-13 [37] of the same substance?
The selectivity ratio: kcat/Km for MMP-9 divided by kcat/Km for MMP-13 was 5.

What about the % hydrolysis (substrate phage ELISA) [38] of the same substance?
Its % hydrolysis (substrate phage ELISA) is 67%.

And the % hydrolysis (substrate phage ELISA) [39]?
The % hydrolysis (substrate phage ELISA) was 60%.

And the % hydrolysis (substrate phage ELISA) [40]?
Its % hydrolysis (substrate phage ELISA) is 85%.

And the “Km (Michaelis constant)” value [41]?
Its value is “Km values were generally in the high micromolar to low millimolar range”.

What about the “kcat (first-order rate constant of substrate peptide turnover)” value [41] of the same substance?
The value was “the kcat values ranged from 9 s^-1 to 703 s^-1”.

What about the “kcat/Km ratio for MMP-9 over that for MMP-7 or MMP-13” value [41] of the same substance?
The value was “The kcat/Km ratios ranged from 2.6 to 47 fold higher for MMP-9 than for either MMP-7 or MMP-13”.

And the “fold reduction of kcat/Km relative to peptide A11” value [42]?
Its value is “reduced kcat/Km ratio nearly 30-fold”.

What about the kcat/Km ratio [42] of the same substance?
Its kcat/Km ratio is “measurable kcat/Km ratio (2,000M^-1s^-1)”.

And the % hydrolysis (substrate phage ELISA) [43]?
The % hydrolysis (substrate phage ELISA) was 100%.

What about the selectivity ratio: kcat/Km for MMP-9 divided by kcat/Km for MMP-7 [44] of the same substance?
Its selectivity ratio: kcat/Km for MMP-9 divided by kcat/Km for MMP-7 is 10.

And the selectivity ratio: kcat/Km for MMP-9 divided by kcat/Km for MMP-13 [44]?
The selectivity ratio: kcat/Km for MMP-9 divided by kcat/Km for MMP-13 was 3.

And the % hydrolysis (substrate phage ELISA) [45]?
The % hydrolysis (substrate phage ELISA) was 91%.

And the selectivity ratio: kcat/Km for MMP-9 divided by kcat/Km for MMP-7 [46]?
Its selectivity ratio: kcat/Km for MMP-9 divided by kcat/Km for MMP-7 is 14.

And the selectivity ratio: kcat/Km for MMP-9 divided by kcat/Km for MMP-13 [46]?
Its selectivity ratio: kcat/Km for MMP-9 divided by kcat/Km for MMP-13 is 12.

And the % hydrolysis (substrate phage ELISA) [47]?
Its % hydrolysis (substrate phage ELISA) is 100%.

What about the % hydrolysis (substrate phage ELISA) [48] of the same substance?
The % hydrolysis (substrate phage ELISA) was 100%.

What about the % hydrolysis (substrate phage ELISA) [49] of the same substance?
The % hydrolysis (substrate phage ELISA) was 100%.

And the kcat/Km relative to the parent peptide A11 (mutant peptide A11m1)?
The kcat/Km relative to the parent peptide A11 was 2 fold.
